This is an account of results in US20090214528A1 (published 2009).

This assay has as its target human tissue factor (human, UniProt P13726 33-295). The experiment in a line: cell-based or functional assay.

B1: CNTO 860 derived from the YB2/0 host cell line C1083B (antibody, human IgG1, kappa, V domains shown)
VH: QVQLVESGGGVVQPGRSLRLSCKASGFNIKDYYMHWVRQAPGKGLEWIGLIDPENGNTIYDPKFQGRFTISADNSKNTLFLQMDSLRPEDTAVYYCARDNSYYFDYWGQGTPVTVSS
VL: DIQMTQSPSSLSASVGDRVTITCKASQDIRKYLNWYQQKPGKAPKLLIYYATSLADGVPSRFSGSGSGTDYTFTISSLQPEDIATYYCLQHGESPYTFGQGTKLEITR
Take B1: the “ADCC potency relative to CNTO 860 derived from C463, second experiment, 51Cr-release on HCT 116 cells” value is around 10 fold.
